One substance from publication PMC11272584 (Nature Metabolism, 2024) can be followed below.

One test addresses T1, GIPR S415I (human) (UniProt P48546).
T1 sequence: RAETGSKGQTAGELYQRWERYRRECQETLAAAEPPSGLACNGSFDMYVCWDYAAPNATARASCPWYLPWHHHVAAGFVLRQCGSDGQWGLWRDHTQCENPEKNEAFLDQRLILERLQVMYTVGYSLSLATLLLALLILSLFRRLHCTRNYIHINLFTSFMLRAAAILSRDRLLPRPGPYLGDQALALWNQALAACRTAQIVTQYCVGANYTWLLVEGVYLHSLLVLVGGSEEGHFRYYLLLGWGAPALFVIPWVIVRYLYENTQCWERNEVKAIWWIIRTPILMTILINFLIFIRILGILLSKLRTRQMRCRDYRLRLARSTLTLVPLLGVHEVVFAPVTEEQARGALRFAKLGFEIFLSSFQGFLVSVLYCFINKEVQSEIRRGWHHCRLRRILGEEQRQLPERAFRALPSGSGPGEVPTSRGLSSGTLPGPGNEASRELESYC

Another test has as its target T2, GIPR P195R (human) (UniProt P48546).
T2 sequence: T1 sequence with P174R, I394S

In a further test the target is T3, GIPR R43G (human) (UniProt P48546).
T3 sequence: T1 sequence with R22G, I394S

The target of another test is T4, GIPR R164Q (human) (UniProt P48546).
T4 sequence: T1 sequence with R143Q, I394S

Another test deals with T5, GIPR M67R (human) (UniProt P48546).
T5 sequence: T1 sequence with M46R, I394S

A further test concerns the target T6, GIPR A207V (human) (UniProt P48546).
T6 sequence: T1 sequence with A186V, I394S

Numbering of substitutions follows the chain as printed.

For “β-arrestin 2 (Rluc8-Arrestin-3-Sp1) (from UniProt P32121 1-409) (natural protein)”, the β-arrestin 2 recruitment (BRET) on stimulation with GIP(1-42): logEC50 (Arrestin) (log M (inferred)) is -9.12 with GIPR S415I (human); -9.04 in the test with GIPR P195R (human); -9.1 with GIPR R43G (human); -8.92 with GIPR R164Q (human); -8.16 with GIPR M67R (human); -9.42 in the test with GIPR A207V (human).
